Source: patent US20150276749A1 (KONICA MINOLTA, published 2015)
Each block holds one molecule with its values, some of them ahead of it.

Tests used:
[1] = molecular target: soluble-type human DSG3-mouse IgG2aFc fusion protein (human; mouse) (UniProt P32926); experiment: sandwich ELISA, antigen in PBS(-); immobilized MAB1720, detection biotinylated DF366m
[2] = molecular target: soluble-type human DSG3-mouse IgG2aFc fusion protein (human; mouse) (UniProt P32926); experiment: sandwich ELISA, antigen in PBS(-); immobilized MAB1720, detection biotinylated D219-3
[3] = molecular target: soluble-type human DSG3-mouse IgG2aFc fusion protein (human; mouse) (UniProt P32926); experiment: sandwich ELISA, luminescence over blank; immobilized MAB1720, detection DF151; antigen 40 pg/mL
[4] = molecular target: soluble-type human DSG3-mouse IgG2aFc fusion protein (human; mouse) (UniProt P32926); experiment: sandwich ELISA, luminescence over blank; immobilized MAB1720, detection DF151; antigen 1000 pg/mL
[5] = molecular target: soluble-type human DSG3-mouse IgG2aFc fusion protein (human; mouse) (UniProt P32926); experiment: sandwich ELISA, antigen in PBS(-); immobilized MAB1720, detection biotinylated MAB1720
[6] = molecular target: soluble-type human DSG3-mouse IgG2aFc fusion protein (human; mouse) (UniProt P32926); experiment: sandwich ELISA, antigen added to human serum; immobilized MAB1720, detection biotinylated DF151
[7] = molecular target: soluble-type human DSG3-mouse IgG2aFc fusion protein (human; mouse) (UniProt P32926); experiment: sandwich ELISA, luminescence over blank; immobilized MAB1720, detection DF151; antigen 10 pg/mL
[8] = molecular target: soluble-type human DSG3-mouse IgG2aFc fusion protein (human; mouse) (UniProt P32926); experiment: sandwich ELISA, luminescence over blank; immobilized MAB1720, detection DF151; antigen 25000 pg/mL
[9] = molecular target: soluble-type human DSG3-mouse IgG2aFc fusion protein (human; mouse) (UniProt P32926); experiment: sandwich ELISA, antigen in PBS(-); immobilized MAB1720, detection biotinylated DF151
[10] = molecular target: soluble-type human DSG3-mouse IgG2aFc fusion protein (human; mouse) (UniProt P32926); experiment: sandwich ELISA, luminescence over blank; immobilized MAB1720, detection DF151; antigen 1 pg/mL
[11] = molecular target: soluble-type human DSG3-mouse IgG2aFc fusion protein (human; mouse) (UniProt P32926); experiment: sandwich ELISA, luminescence over blank; immobilized MAB1720, detection DF151; antigen 5000 pg/mL
[12] = molecular target: soluble-type human DSG3-mouse IgG2aFc fusion protein (human; mouse) (UniProt P32926); experiment: SPFS sandwich; immobilized MAB1720, detection DF151; antigen 1,000 pg/mL (µg/mL in the source)
[13] = molecular target: soluble-type human DSG3-mouse IgG2aFc fusion protein (human; mouse) (UniProt P32926); experiment: sandwich ELISA, luminescence over blank; immobilized MAB1720, detection DF151; antigen 200 pg/mL
[14] = molecular target: T1, soluble-type human DSG3-mouse IgG2aFc fusion protein (human; mouse, UniProt P32926 50-616); experiment: sandwich ELISA, luminescence over blank; immobilized DF366m, detection DF151; antigen 25000 pg/mL
T1 construct: also called human desmoglein 3; desmoglein 3 standard; not shown: mouse IgG2a Fc, printed 'mouse IgG2aFc' and 'mouse IgG2 constant region'
T1 sequence: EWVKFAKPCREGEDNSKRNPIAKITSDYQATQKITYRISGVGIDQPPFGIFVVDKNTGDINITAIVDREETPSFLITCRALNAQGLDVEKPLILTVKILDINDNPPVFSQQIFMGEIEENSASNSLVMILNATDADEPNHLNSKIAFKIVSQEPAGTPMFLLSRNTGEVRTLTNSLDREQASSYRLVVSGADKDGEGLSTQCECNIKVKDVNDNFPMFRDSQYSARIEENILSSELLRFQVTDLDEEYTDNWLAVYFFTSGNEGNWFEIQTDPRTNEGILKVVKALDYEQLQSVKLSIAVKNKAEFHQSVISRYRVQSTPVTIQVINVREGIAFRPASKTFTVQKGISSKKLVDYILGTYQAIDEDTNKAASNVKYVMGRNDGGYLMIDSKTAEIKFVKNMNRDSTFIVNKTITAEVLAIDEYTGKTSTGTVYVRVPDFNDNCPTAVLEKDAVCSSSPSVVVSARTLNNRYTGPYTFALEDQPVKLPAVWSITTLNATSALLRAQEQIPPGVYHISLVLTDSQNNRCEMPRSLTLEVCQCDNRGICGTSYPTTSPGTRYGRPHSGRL
Procedure: (§1) Subsequently, the antigen solutions having the above-described concentrations were each added to the plate in an amount of 50 μL/well, and the plate was incubated at room temperature for 1 hour. Then, the antigen solution was removed, and the plate was washed with 0.05% Tween 20-PBS three times. Thereafter, the 1-μg/mL biotinylated antibody solution was added in an amount of 50 μL/well, and the plate was incubated at room temperature for 1 hour.
(§2) Then, after removing the streptavidin-HRP solution and washing the plate with 0.05% Tween 20-PBS three times, a substrate solution (SuperSignal ELISA Femto Maximum Sensitivity Substrate (registered trademark); Pierce Biotechnology, Inc.) was added in an amount of 100 μL/well. One minute thereafter, the luminescence intensity was measured using a luminometer, Fluoroskan Ascent FL (trade name, Thermo Electron Corporation).
(§3) The numerical values shown in Table 1 represent the minimum values of the antigen solution concentration having an S/N ratio of higher than 2 (hereinafter, referred to as “detection limit concentration”) and the unit of the numerical values is pg/mL. The S/N ratio was determined by dividing the luminescence intensity at the respective antigen solution concentrations ([…]) by the luminescence intensity of an antigen-free blank antigen solution (0 μg/mL).

[15] = molecular target: T1, soluble-type human DSG3-mouse IgG2aFc …; experiment: sandwich ELISA, luminescence over blank; immobilized DF366m, detection DF151; antigen 40 pg/mL
Procedure: as §1, §2, §3

[16] = molecular target: T1, soluble-type human DSG3-mouse IgG2aFc …; experiment: sandwich ELISA, luminescence over blank; immobilized DF366m, detection MAB1720; antigen 1000 pg/mL
Procedure: as §1, §2, §3

[17] = molecular target: T1, soluble-type human DSG3-mouse IgG2aFc …; experiment: sandwich ELISA, luminescence over blank; immobilized DF366m, detection DF151; antigen 5000 pg/mL
Procedure: as §1, §2, §3

[18] = molecular target: T1, soluble-type human DSG3-mouse IgG2aFc …; experiment: sandwich ELISA, luminescence over blank; immobilized DF366m, detection DF151; antigen 1000 pg/mL
Procedure: as §1, §2, §3

[19] = molecular target: T1, soluble-type human DSG3-mouse IgG2aFc …; experiment: sandwich ELISA, luminescence over blank; immobilized DF366m, detection MAB1720; antigen 25000 pg/mL
Procedure: as §1, §2, §3

[20] = molecular target: T1, soluble-type human DSG3-mouse IgG2aFc …; experiment: sandwich ELISA, luminescence over blank; immobilized DF366m, detection MAB1720; antigen 10 pg/mL
Procedure: as §1, §2
(§4) The numerical values shown in Table 1 represent the minimum values of the antigen solution concentration having an S/N ratio of higher than 2 (hereinafter, referred to as “detection limit concentration”) and the unit of the numerical values is pg/mL. […]

[21] = molecular target: T1, soluble-type human DSG3-mouse IgG2aFc …; experiment: sandwich ELISA, luminescence over blank; immobilized DF366m, detection MAB1720; antigen 5000 pg/mL
Procedure: as §1, §2, §3

[22] = molecular target: T1, soluble-type human DSG3-mouse IgG2aFc …; experiment: SPFS sandwich; immobilized DF366 (so in the source), detection MAB1720; antigen 1,000 pg/mL (µg/mL in the source)
Procedure: (§5) Once again, a Tris-buffered saline (TBS) containing 0.05% by mass of Tween 20 was fed and circulated in the flow path for 10 minutes to wash the flow path. Then, with the flow path being filled with PBS buffer (pH 7.4), the assay area was irradiated with laser light (640 nm, 40 μW) from the back side of the metal thin films, and the fluorescence intensity was measured using a photomultiplier tube (PMT) arranged above the assay area. The thus measured value was defined as “signal” (S) at a desmoglein 3 concentration of 100 μg/mL.
(§6) Further, the fluorescence intensity was measured by the same procedures as described above, except that the desmoglein 3 concentration of the fed PBS solution was changed to 10,000 μg/mL, 5,000 μg/mL, 1,000 μg/mL, 200 μg/mL, 50 μg/mL, 10 μg/mL, 3.16 μg/mL, 1 μg/mL, 0.316 μg/mL, 0.1 μg/mL and 0.031 μg/mL. The thus measured values were each defined as “signal” (S) at the respective concentrations.
In addition, when the antibody combination was variously changed in the same manner as in Example 1, it was confirmed that plots similar to the one shown in FIG. 6 can be obtained.

[23] = molecular target: T1, soluble-type human DSG3-mouse IgG2aFc …; experiment: sandwich ELISA, luminescence over blank; immobilized DF366m, detection MAB1720; antigen 40 pg/mL
Procedure: as §1, §2, §3

[24] = molecular target: T1, soluble-type human DSG3-mouse IgG2aFc …; experiment: sandwich ELISA, luminescence over blank; immobilized DF366m, detection MAB1720; antigen 1 pg/mL
Procedure: as §1, §2, §3

[25] = molecular target: T1, soluble-type human DSG3-mouse IgG2aFc …; experiment: SPFS sandwich; immobilized DF366m, detection DF151; antigen 1,000 pg/mL (µg/mL in the source)
Procedure: as §5
On another front, the fluorescence intensity was also measured by the same procedures as described above, except that a PBS solution containing no desmoglein 3 (0 μg/mL) was fed in place of the PBS solution containing 100 μg/mL of desmoglein 3. The thus measured value was defined as “noise” (N).
as §6

[26] = molecular target: T1, soluble-type human DSG3-mouse IgG2aFc …; experiment: sandwich ELISA, luminescence over blank; immobilized DF366m, detection DF151; antigen 200 pg/mL
Procedure: as §1, §2, §3

[27] = molecular target: T1, soluble-type human DSG3-mouse IgG2aFc …; experiment: sandwich ELISA, luminescence over blank; immobilized DF366m, detection MAB1720; antigen 200 pg/mL
Procedure: as §1, §2, §3

[28] = molecular target: T1, soluble-type human DSG3-mouse IgG2aFc …; experiment: sandwich ELISA, luminescence over blank; immobilized DF366m, detection DF151; antigen 1 pg/mL
Procedure: as §1, §2, §4

[29] = molecular target: T1, soluble-type human DSG3-mouse IgG2aFc …; experiment: sandwich ELISA, luminescence over blank; immobilized DF366m, detection DF151; antigen 10 pg/mL
Procedure: as §1, §2, §4

detection limit concentration (lowest antigen concentration with S/N > 2) [1]: 5000 pg/mL
detection limit concentration (lowest antigen concentration with S/N > 2) [2]: 5000 pg/mL
S/N ratio [3]: 1
S/N ratio [4]: 2.8
detection limit concentration (lowest antigen concentration with S/N > 2) [5]: 5000 pg/mL
detection limit concentration [6]: 1000 pg/mL
S/N ratio [7]: 1.1
S/N ratio [8]: 53
detection limit concentration (lowest antigen concentration with S/N > 2) [9]: 1000 pg/mL
S/N ratio [10]: 0.9
S/N ratio [11]: 11.4
S/N ratio [12]: 34.5
S/N ratio [13]: 1.3
Molecule: MAB1720 antibody (R&D Systems, Inc., Catalog No.: MAB1720)

S/N ratio [14]: 186
S/N ratio [15]: 1.2
S/N ratio [16]: 3.9
S/N ratio [17]: 37.3
S/N ratio [18]: 8.1
S/N ratio [19]: 80.4
S/N ratio [20]: 1
S/N ratio [21]: 16.6
S/N ratio [22]: 92.2
S/N ratio [23]: 0.9
S/N ratio [24]: 0.9
S/N ratio [25]: 140
S/N ratio [26]: 2.3
S/N ratio [27]: 1.8
S/N ratio [28]: 1
S/N ratio [29]: 1.1
B1: DF366m (DF366m[I] antibody) (antibody, mouse IgG2a, kappa, V domains shown)
VH: EVQLQQSGPELVKPGASVKISCKASGYTFTDYNMDWVKQSHGESLEWIGYIYPNNGGSGYNQKFKSKATLTVDKSSSTAYMELHSLTSEDSAVYYCARRDSYYGFDMAWFAYWGQGTLVTVSA
VL: DIQMTQSPASLSASVGETVTITCRPSENIYNNLAWYQQKQGKSPQLLVYVATNLAEGVPSRFSGSGSGTRFSLKINSLQPEDFGKYYCQHSYGTPWTFGGGTKLEIKR
notes: Complete antibody; Plain when immobilized; biotinylated (Biotin-AC5-Osu) when used as detection antibody; also called DF366m antibody
